Literature values in patent publication US10822386B2, “Insulin analogues with enhanced stability and reduced mitogenicity” (CASE WESTERN RESERVE UNIVERSITY, priority 2014, dated 2020).

Tests used:
[1] = tested on: neoplastic cell lines (including a cell line derived from a human breast cancer)
insulin receptor = insulin receptor (Homo sapiens, UniProt P06213); settings: versus wild-type insulin
[2] = substitution of His^B10 by Asp, versus wild-type
Sprague-Dawley rats = settings: chronic treatment, relative to wild-type insulin

In the case of Asp^B10-insulin, the “mitogenicity in cell culture” value [1] is given as “increased mitogenicity”, the “potency to stimulate lipogenesis” value (isolated adipocytes) is given as “augments in parallel its potency” and the “affinity for the insulin receptor” value (insulin receptor) is given as “enhances the affinity”. The “thermodynamic stability of the zinc-free insulin monomer” value [2] was “augment the thermodynamic stability” and the “incidence of mammary tumors” value (Sprague-Dawley rats) was “excess incidence of mammary tumors”.
